Data on 22 substances can be found in paper PMC12005725.

The target in assay [1] is microtubule (polymerized tubulin, taxol-stabilised) (UniProt P02550). The assay is described as follows: single-molecule fluorescence (smFRET with Alexa-ATP, TIRF) on microtubules; microtubules on a poly-L-lysine-coated slide, 100 pM ATTO488-kinesin, 500 nM Alexa Fluor 647 ATP, 150 mM KCl, 20 uM taxol, BRB12, 22 C, 10 ms exposure.
The target is the same in assay [2].
Assay [3] shares this target. The assay is described as follows: stopped-flow turbidity (light scattering); oxidized condition (10 uM CuCl2, 20 uM o-phenanthroline); nucleotide-free complex of 3.2 uM kinesin and 4 uM microtubule (20 uM taxol, 0.1 U/ml apyrase), 150 mM KCl added, rapidly mixed with 1 mM ATP plus 150 mM KCl; BRB25 pH 6.8, 25 C; turbidity at 340 nm, burst equation.
Assay [4] shares this target. The assay is described as follows: stopped-flow turbidity (light scattering); reduced condition (10 mM DTT); nucleotide-free complex of 3.2 uM kinesin and 4 uM microtubule (20 uM taxol, 0.1 U/ml apyrase), 150 mM KCl added, rapidly mixed with 1 mM ATP plus 150 mM KCl; BRB25 pH 6.8, 25 C; turbidity at 340 nm, burst equation.
Assay [5] shares this target. The source holds these as a separate data set.
Assay [6] shares this target. Kind of assay: high-speed total internal reflection dark-field microscopy of gold-labeled kinesin; microtubules held on glass by protein A and anti-alpha-tubulin antibody, 3 nM gold-labeled kinesin, BRB12 with 20 mM KCl and 1-1000 uM ATP, 24-26 C, 20,000 fps; bound and unbound states of the gold-labeled WT head while the E236A head stays bound.
In assay [7] the target is axonemes (purified from sea urchin sperm flagella) (sea urchin). The assay is described as follows: single-molecule fluorescence microscopy (TIRF), dwell time; oxidized condition (no 2-mercaptoethanol); axonemes on the slide, 200 or 500 pM GFP-kinesin in solution, 1 mM ATP, 100 mM KCl, BRB12; 10 ms resolution; k2_SMF is the inverse of the mean dwell time.
Assay [8] has the same target. The assay is described as follows: single-molecule fluorescence microscopy (TIRF), dwell time; reducing condition (70 mM 2-mercaptoethanol); axonemes on the slide, 200 or 500 pM GFP-kinesin in solution, 1 mM ATP, 100 mM KCl, BRB12; 10 ms resolution; k2_SMF is the inverse of the mean dwell time.

UniProt P02550, sequence (P02550 whole entry, looked up): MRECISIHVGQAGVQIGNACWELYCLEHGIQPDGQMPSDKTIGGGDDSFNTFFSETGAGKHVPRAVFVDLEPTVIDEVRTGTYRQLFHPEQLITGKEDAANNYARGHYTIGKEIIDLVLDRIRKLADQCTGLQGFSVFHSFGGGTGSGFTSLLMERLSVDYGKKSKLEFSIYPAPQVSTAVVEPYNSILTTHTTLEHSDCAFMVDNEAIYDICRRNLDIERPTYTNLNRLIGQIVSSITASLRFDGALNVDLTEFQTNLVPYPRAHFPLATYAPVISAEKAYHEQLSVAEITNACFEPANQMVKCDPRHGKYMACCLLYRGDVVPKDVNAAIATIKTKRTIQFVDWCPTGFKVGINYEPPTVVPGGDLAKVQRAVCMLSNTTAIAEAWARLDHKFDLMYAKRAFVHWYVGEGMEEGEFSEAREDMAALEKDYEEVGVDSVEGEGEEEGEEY

In assay [1], “ATTO488-labeled 'wild-type' monomer (Cys-light K349 monomeric kinesin with Cys55) (from UniProt P33176 1-349) (domain or fragment)” showed an inverse of the mean dwell time for head dissociation (Alexa-ATP-bound state ending in detachment from the microtubule) of 89.7 s^–1.
On to “Cys-light K339 C4/C330 monomer, oxidized (disulfide-crosslinked between cover strand and neck linker) (from UniProt P33176 1-339) (domain or fragment)”, for which, in assay [2], the Km(MT) of the steady-state microtubule-activated ATPase, oxidized condition is 8.36 µM. Moreover, in assay [3], the k2 (ATP-induced dissociation rate from microtubule, light scattering) is 80.8 s⁻¹.
On to “Cys-light K339 C4/C330 monomer, reduced (un-crosslinked) (from UniProt P33176 1-339) (domain or fragment)”, for which the Km(MT) of the steady-state microtubule-activated ATPase, reduced condition in assay [2] amounted to 0.42 µM. Besides, the k2 (ATP-induced dissociation rate from microtubule, light scattering) in assay [4] came to 68.6 s⁻¹.
For the substance “Cys-light K339 C47/C328 monomer, oxidized (disulfide-crosslinked; front head crosslink) (from UniProt P33176 1-339) (domain or fragment)”, the Km(MT) of the steady-state microtubule-activated ATPase, oxidized condition in assay [2] came out at 0.13 µM. The k2 (ATP-induced dissociation rate from microtubule, light scattering) in assay [3] is 7 s⁻¹.
Regarding “Cys-light K339 C47/C328 monomer, reduced (un-crosslinked) (from UniProt P33176 1-339) (domain or fragment)”, the Km(MT) of the steady-state microtubule-activated ATPase, reduced condition in assay [2] is 0.28 µM. For the same substance, the k2 (ATP-induced dissociation rate from microtubule, light scattering) in assay [4] is 51.5 s⁻¹.
Consider “Cys-light K339 C47/C335 monomer, oxidized (disulfide-crosslinked; loose backward crosslink) (from UniProt P33176 1-339) (domain or fragment)”, for which the Km(MT) of the steady-state microtubule-activated ATPase, oxidized condition in assay [2] amounted to 0.1 µM. The k2 (ATP-induced dissociation rate from microtubule, light scattering) in assay [3] turned out to be 19.4 s⁻¹.
Consider “Cys-light K339 C47/C335 monomer, reduced (un-crosslinked) (from UniProt P33176 1-339) (domain or fragment)”, for which the Km(MT) of the steady-state microtubule-activated ATPase, reduced condition in assay [2] worked out at 0.33 µM. In assay [4], the k2 (ATP-induced dissociation rate from microtubule, light scattering) is 41.6 s⁻¹.
For the substance “Cys-light K339 C222/C334 monomer, oxidized (disulfide-crosslinked; rear head crosslink) (from UniProt P33176 1-339) (domain or fragment)”, in assay [2], the Km(MT) of the steady-state microtubule-activated ATPase, oxidized condition is 0.2 µM.
“Cys-light K339 C222/C334 monomer, reduced (un-crosslinked) (from UniProt P33176 1-339) (domain or fragment)”: the Km(MT) of the steady-state microtubule-activated ATPase, reduced condition in assay [2] was found to be 0.23 µM. Moreover, the k2 (ATP-induced dissociation rate from microtubule, light scattering) in assay [4] came out at 69.3 s⁻¹.
In the case of “Cys-light K339 monomeric kinesin with no cysteine introduction (WT) (from UniProt P33176 1-339) (domain or fragment)”, in assay [2], the Km(MT) of the steady-state microtubule-activated ATPase, oxidized condition amounted to 0.36 µM and the Km(MT) of the steady-state microtubule-activated ATPase, reduced condition stood at 0.31 µM. Further, in assay [4], the k2 (ATP-induced dissociation rate from microtubule, light scattering) came to 52.1 s⁻¹. The k2 (ATP-induced dissociation rate from microtubule, light scattering) in assay [3] was determined as 59.1 s⁻¹.
On to “E236A–WT heterodimer with a 7 poly-Gly insertion (G7), WT head labeled with a gold nanoparticle (from UniProt P33176 1-490; P33176 1-490) (complex)”, for which the Km (MT) of the microtubule-activated ATPase of the heterodimer (G7) in assay [5] stood at 0.18 µM. For the same substance, the kcat of the inverse bound dwell time against ATP, taken as the ATP-induced detachment rate k2 of the front WT head in assay [6] came out at 7.6 s^–1.
Turning to “E236A–WT heterodimer with a 12 poly-Gly insertion (G12), WT head labeled with a gold nanoparticle (from UniProt P33176 1-490; P33176 1-490) (complex)”, the Km (MT) of the microtubule-activated ATPase of the heterodimer (G12) in assay [5] was determined as 0.14 µM. Besides, in assay [6], the dwell time of the WT head bound at the front-binding site at 1 mM ATP was 111 ms; the dwell time of the WT head bound at the rear-tubulin-binding site at 1 mM ATP amounted to 19 ms; the kcat of the inverse bound dwell time against ATP, taken as the ATP-induced detachment rate k2 of the front WT head was 9.3 s^–1.
In the case of “E236A–WT heterodimer without neck-linker extension (G0), WT head labeled with a gold nanoparticle (from UniProt P33176 1-490; P33176 1-490) (complex)”, the Km (MT) of the microtubule-activated ATPase of the heterodimer (G0) in assay [5] stood at 0.54 µM. Further, in assay [6], the dwell time of the microtubule-bound state of the front WT head at 10 µM ATP amounted to 1.1 s; the kcat of the inverse bound dwell time against ATP, taken as the ATP-promoted detachment rate k2 of the front WT head was 6.3 s^–1; the mean dwell time of the microtubule-bound state of the front WT head at 1 mM ATP is 160 ms; the mean dwell time of the unbound state of the front WT head at 1 mM ATP was determined as 11 ms.
With “GFP-fused K339 Cys-light C4/C330 kinesin, oxidized (crosslinked) (from UniProt P33176 1-339) (domain or fragment)”, the k2 SMF (inverse of the mean dwell time on the microtubule, 1 mM ATP) in assay [7] is 58.4 s⁻¹.
For “GFP-fused K339 Cys-light C4/C330 kinesin, reduced (from UniProt P33176 1-339) (domain or fragment)”, in assay [8], the k2 SMF (inverse of the mean dwell time on the microtubule, 1 mM ATP) was determined as 59.5 s⁻¹.
“GFP-fused K339 Cys-light C47/C328 kinesin, oxidized (front head crosslink) (from UniProt P33176 1-339) (domain or fragment)”: in assay [7], the fold increase of the binding frequency to the microtubule after crosslinking is 4 fold and the k2 SMF (inverse of the mean dwell time on the microtubule, 1 mM ATP) turned out to be 2.3 s⁻¹.
Consider “GFP-fused K339 Cys-light C47/C328 kinesin, reduced (from UniProt P33176 1-339) (domain or fragment)”, for which, in assay [8], the k2 SMF (inverse of the mean dwell time on the microtubule, 1 mM ATP) is 42.1 s⁻¹.
“GFP-fused K339 Cys-light C47/C335 kinesin, oxidized (crosslinked) (from UniProt P33176 1-339) (domain or fragment)”: in assay [7], the k2 SMF (inverse of the mean dwell time on the microtubule, 1 mM ATP) was 22.5 s⁻¹.
“GFP-fused K339 Cys-light C47/C335 kinesin, reduced (from UniProt P33176 1-339) (domain or fragment)”: the k2 SMF (inverse of the mean dwell time on the microtubule, 1 mM ATP) in assay [8] is 52.1 s⁻¹.
Regarding “GFP-fused K339 Cys-light C222/C334 kinesin, oxidized (rear head crosslink) (from UniProt P33176 1-339) (domain or fragment)”, in assay [7], the fold reduction of the binding frequency to the microtubule after crosslinking turned out to be 6 fold and the k2 SMF (inverse of the mean dwell time on the microtubule, 1 mM ATP) stood at 57.1 s⁻¹.
For “GFP-fused K339 Cys-light C222/C334 kinesin, reduced (from UniProt P33176 1-339) (domain or fragment)”, in assay [8], the k2 SMF (inverse of the mean dwell time on the microtubule, 1 mM ATP) was determined as 47.2 s⁻¹.
As to “GFP-fused K339 Cys-light kinesin (WT, no cysteine introduction) (from UniProt P33176 1-339) (domain or fragment)”, the k2 SMF (inverse of the mean dwell time on the microtubule, 1 mM ATP) in assay [7] was found to be 41.6 s⁻¹; in assay [8], 44 s⁻¹.
